Where two headings read alike, the source gives them in different places.
Experiments:
[1] = molecular target: T1, JEV strain SA14-14-2 envelope (E) protein on virions (Japanese encephalitis virus strain …, UniProt P0DOH7 295-794); assay: cell-based or functional assay
[2] = molecular target: T1, JEV strain SA14-14-2 envelope (E) …; assay: cell-based or functional assay; remark: listed apart in the source
[3] = molecular target: E protein of wild type JEV strain JE 1991 (genotype I) (Japanese encephalitis virus strain JE …); assay: cell-based or functional assay
[4] = molecular target: E protein of wild type JEV strain JE B1034/8 (genotype II) (Japanese encephalitis virus strain JE …); assay: cell-based or functional assay
[5] = molecular target: E protein of wild type JEV strain Beijing (genotype III) (Japanese encephalitis virus strain …); assay: cell-based or functional assay
[6] = molecular target: E protein of wild type JEV strain JKT 9092 (genotype IV) (Japanese encephalitis virus strain JKT …); assay: cell-based or functional assay
[7] = molecular target: T1, JEV strain SA14-14-2 envelope (E) …; assay: cell-based or functional assay; remark: listed apart in the source
[8] = molecular target: T1, JEV strain SA14-14-2 envelope (E) …
[9] = molecular target: T1, JEV strain SA14-14-2 envelope (E) …; assay: cell-based or functional assay; remark: listed apart in the source
[10] = molecular target: T2, recombinant JEV N-terminal 80% E protein (Japanese encephalitis virus strain …, UniProt P0DOH7 295-692); assay: SPR, recombinant E immobilized
[11] = molecular target: T1, JEV strain SA14-14-2 envelope (E) …; assay: ELISA on JEV virions, half maximum binding (FIG. 4A)
[12] = molecular target: T1, JEV strain SA14-14-2 envelope (E) …; assay: ELISA, virion-coated plate; initial Fab ~100 µg/ml
[13] = molecular target: T1, JEV strain SA14-14-2 envelope (E) …; assay: ELISA on JEV SA14-14-2 virions captured with HMAF
[14] = molecular target: T2, recombinant JEV N-terminal 80% E protein; assay: SPR (Biacore 3000), recombinant E immobilized, Fab in solution
[15] = molecular target: T1, JEV strain SA14-14-2 envelope (E) …; assay: ELISA on JEV virions captured with HMAF, half-maximal binding, Fab
[16] = molecular target: T1, JEV strain SA14-14-2 envelope (E) …; remark: listed apart in the source
[17] = molecular target: T1, JEV strain SA14-14-2 envelope (E) …; remark: listed apart in the source
[18] = molecular target: T1, JEV strain SA14-14-2 envelope (E) …; assay: ELISA on JEV virions captured with HMAF, half-maximal binding, MAb

Row | Binder | occupancy of accessible antibody sites on the virion for neutralization [1] | PRNT50 titer [2] | PRNT50 titer [3] | PRNT50 titer [4] | PRNT50 titer [5] | PRNT50 titer [6] | PRNT50 [7] | PRNT50 titer [9] | EC50 [11] | ELISA titer (1/log10 dilution) [12] | EC50 (read off the curve) [13] | Kd [14] | koff [14] | kon [14] | Kd [15] | also measured
1 | humanized MAb B2 (antibody, V domains shown) VH: VQLLEQSGSEVKKPGASVKVSCKASGYPFTDYAMSWVRQAPGQGLEYMGWIFTNSGNPTYAPGFAGRFVFSLDISVNTAYLHIDSLKPEDTAVYYCARGIVTPAASGDYFDSWGQGTLVTVSS VL: ELVLTQSPSSLSASIGDRVTITCRASQHISSWLAWYQQKPGKAPKPLIYAASSLKSGVPSRFSGSGSGTDFTLTISGLQPEDFATYYCQQYENSPVTFGGGTKVEIKR | ~28% | 0.03 nM | 0.02 nM | 0.02 nM | 0.02 nM | 2 nM | 0.005 µg/mL | – | – | – | – | – | – | – | – | –
2 | Fab B2 (Fab, V domains shown) VH: VQLLEQSGSEVKKPGASVKVSCKASGYPFTDYAMSWVRQAPGQGLEYMGWIFTNSGNPTYAPGFAGRFVFSLDISVNTAYLHIDSLKPEDTAVYYCARGIVTPAASGDYFDSWGQGTLVTVSS VL: ELVLTQSPSSLSASIGDRVTITCRASQHISSWLAWYQQKPGKAPKPLIYAASSLKSGVPSRFSGSGSGTDFTLTISGLQPEDFATYYCQQYENSPVTFGGGTKVEIKR | – | – | – | – | – | – | – | 0.25 nM | 0.28 nM | 4.2 log10 reciprocal dilution | ~0.2 nM | 110 nM | 0.0046 s⁻¹ | 42000 M⁻¹ s⁻¹ | 0.28 nM | IC50 (read off the curve) [8]: ~5 nM; fold faster off-rate than Fab A3 or E3 [10]: ≥ 120 fold; fold weaker Kd than Fab A3 or E3 [10]: ≥ 150 fold
3 | Fab A3 (Fab, V domains shown) VH: EVQLLESGAEVKKPGSSVRISCKVSGTPYSSYVMNWVRQAPGQGLEWMGVFVPSLDRALYAQNFQGRLSITADTTTTYMELTSLKFEDTAVYYCATDFSVGWLRPLDRWGQGTLVTVSS VL: ELQMTQSPSSLSASVGDRVTITCRASQGISNYLAWYQQKPGKAPKLLIYYASRLESGVPSRFSGSGSGTDYTLTISSLQPEDFATYYCQQYNSNPFTFGPGTKVDIKR | – | – | – | – | – | – | – | 2.55 nM | 0.45 nM | 4.7 log10 reciprocal dilution | ~0.5 nM | 0.72 nM | 2.8e-05 s⁻¹ | 40000 M⁻¹ s⁻¹ | 0.45 nM | IC50 (read off the curve) [16]: ~6 nM
4 | humanized MAb A3 (antibody, V domains shown) VH: EVQLLESGAEVKKPGSSVRISCKVSGTPYSSYVMNWVRQAPGQGLEWMGVFVPSLDRALYAQNFQGRLSITADTTTTYMELTSLKFEDTAVYYCATDFSVGWLRPLDRWGQGTLVTVSS VL: ELQMTQSPSSLSASVGDRVTITCRASQGISNYLAWYQQKPGKAPKLLIYYASRLESGVPSRFSGSGSGTDYTLTISSLQPEDFATYYCQQYNSNPFTFGPGTKVDIKR | 45% | 0.2 nM | 0.04 nM | 0.04 nM | 0.2 nM | 0.07 nM | 0.04 µg/mL | – | – | – | – | – | – | – | – | –
5 | Fab E3 (Fab, V domains shown) VH: EVQLLESGPGLVRPSQTLSLTCAVSGASISGPLSYWTWIRQSPGKKMEHIGSMFYSGNTYYNPSLKGRITMSVDTSRNQFSLNLNSVTVADTAVYFCARRRETELFGLPIDYWGQGILVTVSS VL: ELTQSPATLSVSPGERATLSCRASERISSSYLSWYQQKPGQAPRLLMYGTSTRATGIPARFSGSGSGTDFTLTISSLQPEDFAVYFCQQDYNLPWTFGQGTKLEIKR | – | – | – | – | – | – | – | 84.9 nM | 0.98 nM | 4.2 log10 reciprocal dilution | ~1 nM | 0.35 nM | 3.6e-05 s⁻¹ | 100000 M⁻¹ s⁻¹ | 0.98 nM | IC50 (read off the curve) [17]: ~7 nM
6 | humanized MAb E3 (antibody, V domains shown) VH: EVQLLESGPGLVRPSQTLSLTCAVSGASISGPLSYWTWIRQSPGKKMEHIGSMFYSGNTYYNPSLKGRITMSVDTSRNQFSLNLNSVTVADTAVYFCARRRETELFGLPIDYWGQGILVTVSS VL: ELTQSPATLSVSPGERATLSCRASERISSSYLSWYQQKPGQAPRLLMYGTSTRATGIPARFSGSGSGTDFTLTISSLQPEDFAVYFCQQDYNLPWTFGQGTKLEIKR | 66% | 0.93 nM | 0.21 nM | 0.14 nM | 0.71 nM | 0.36 nM | 0.09 µg/mL | – | – | – | – | – | – | – | – | Kd [18]: 0.31 nM

From patent publication US20130295090A1 (US Dept. of Health and Human Services, published 2013)
